Measurements published in PMC10585736.

B1: Pol30p (PCNA), wild type, two-hybrid prey (pBL240-PCNA-Gal4AD) [S. cerevisiae] / Rrm3p, two-hybrid bait [S. cerevisiae] (parent)
chain 1: MLEAKFEEASLFKRIIDGFKDCVQLVNFQCKEDGIIAQAVDDSRVLLVSLEIGVEAFQEYRCDHPVTLGMDLTSLSKILRCGNNTDTLTLIADNTPDSIILLFEDTKKDRIAEYSLKLMDIDADFLKIEELQYDSTLSLPSSEFSKIVRDLSQLSDSINIMITKETIKFVADGDIGSGSVIIKPFVDMEHPETSIKLEMDQPVDLTFGAKYLLDIIKGSSLSDRVGIRLSSEAPALFQFDLKSGFLQFFLAPKFNDEE
chain 2: MFRSHASGNKKQWSKRSSNGSTPAASASGSHAYRQQTLSSFFMGCGKKSAAASKNSTTIIDLESGDEGNRNITAPPRPRLIRNNSSSLFSQSQGSFGDDDPDAEFKKLVDVPRLNSYKKSSRSLSMTSSLHKTASASTTQKTYHFDEDETLREVTSVKSNSRQLSFTSTINIEDSSMKLSTDSERPAKRSKPSMEFQGLKLTVPKKIKPLLRKTVSNMDSMNHRSASSPVVLTMEQERVVNLIVKKRTNVFYTGSAGTGKSVILQTIIRQLSSLYGKESIAITASTGLAAVTIGGSTLHKWSGIGIGNKTIDQLVKKIQSQKDLLAAWRYTKVLIIDEISMVDGNLLDKLEQIARRIRKNDDPFGGIQLVLTGDFFQLPPVAKKDEHNVVKFCFESEMWKRCIQKTILLTKVFRQQDNKLIDILNAIRYGELTVDIAKTIRNLNRDIDYADGIAPTELYATRREVELSNVKKLQSLPGDLYEFKAVDNAPERYQAILDSSLMVEKVVALKEDAQVMMLKNKPDVELVNGSLGKVLFFVTESLVVKMKEIYKIVDDEVVMDMRLVSRVIGNPLLKESKEFRQDLNARPLARLERLKILINYAVKISPHKEKFPYVRWTVGKNKYIHELMVPERFPIDIPRENVGLERTQIPLMLCWALSIHKAQGQTIQRLKVDLRRIFEAGQVYVALSRAVTMDTLQVLNFDPGKIRTNERVKDFYKRLETLK

Variants of: B1
Test: yeast two-hybrid (β-galactosidase)
Conditions: with Rrm3p, prey Pol30-79p, parent: 1.3, read off a plot

response (U/mg of protein) | Variant
1.3 | chain 1 L126A I128A

Same assay, conditions: with Rrm3p, prey Pol30-8p, parent: 1.3, read off a plot

response (U/mg of protein) | Variant
0.75 | chain 1 R61A D63A

Same assay, conditions: with Rrm3p, prey Pol30-6p, parent: 1.3, read off a plot

response (U/mg of protein) | Variant
0.58 | chain 1 D41A D42A
